This is an account of results in IntAct's records for PubMed 22081014.

To fix the notation:
B1: Breast cancer anti-estrogen resistance protein 1 (Homo sapiens), P56945 (parent)
chain: MNHLNVLAKALYDNVAESPDELSFRKGDIMTVLEQDTQGLDGWWLCSLHGRQGIVPGNRLKILVGMYDKKPAGPGPGPPATPAQPQPGLHAPAPPASQYTPMLPNTYQPQPDSVYLVPTPSKAQQGLYQVPGPSPQFQSPPAKQTSTFSKQTPHHPFPSPATDLYQVPPGPGGPAQDIYQVPPSAGMGHDIYQVPPSMDTRSWEGTKPPAKVVVPTRVGQGYVYEAAQPEQDEYDIPRHLLAPGPQDIYDVPPVRGLLPSQYGQEVYDTPPMAVKGPNGRDPLLEVYDVPPSVEKGLPPSNHHAVYDVPPSVSKDVPDGPLLREETYDVPPAFAKAKPFDPARTPLVLAAPPPDSPPAEDVYDVPPPAPDLYDVPPGLRRPGPGTLYDVPRERVLPPEVADGGVVDSGVYAVPPPAEREAPAEGKRLSASSTGSTRSSQSASSLEVAGPGREPLELEVAVEALARLQQGVSATVAHLLDLAGSAGATGSWRSPSEPQEPLVQDLQAAVAAVQSAVHELLEFARSAVGNAAHTSDRALHAKLSRQLQKMEDVHQTLVAHGQALDAGRGGSGATLEDLDRLVACSRAVPEDAKQLASFLHGNASLLFRRTKATAPGPEGGGTLHPNPTDKTSSIQSRPLPSPPKFTSQDSPDGQYENSEGGWMEDYDYVHLQGKEEFEKTQKELLEKGSITRQGKSQLELQQLKQFERLEQEVSRPIDHDLANWTPAQPLAPGRTGGLGPSDRQLLLFYLEQCEANLTTLTNAVDAFFTAVATNQPPKIFVAHSKFVILSAHKLVFIGDTLSRQAKAADVRSQVTHYSNLLCDLLRGIVATTKAAALQYPSPSAAQDMVERVKELGHSTQQFRRVLGQLAAA
partner: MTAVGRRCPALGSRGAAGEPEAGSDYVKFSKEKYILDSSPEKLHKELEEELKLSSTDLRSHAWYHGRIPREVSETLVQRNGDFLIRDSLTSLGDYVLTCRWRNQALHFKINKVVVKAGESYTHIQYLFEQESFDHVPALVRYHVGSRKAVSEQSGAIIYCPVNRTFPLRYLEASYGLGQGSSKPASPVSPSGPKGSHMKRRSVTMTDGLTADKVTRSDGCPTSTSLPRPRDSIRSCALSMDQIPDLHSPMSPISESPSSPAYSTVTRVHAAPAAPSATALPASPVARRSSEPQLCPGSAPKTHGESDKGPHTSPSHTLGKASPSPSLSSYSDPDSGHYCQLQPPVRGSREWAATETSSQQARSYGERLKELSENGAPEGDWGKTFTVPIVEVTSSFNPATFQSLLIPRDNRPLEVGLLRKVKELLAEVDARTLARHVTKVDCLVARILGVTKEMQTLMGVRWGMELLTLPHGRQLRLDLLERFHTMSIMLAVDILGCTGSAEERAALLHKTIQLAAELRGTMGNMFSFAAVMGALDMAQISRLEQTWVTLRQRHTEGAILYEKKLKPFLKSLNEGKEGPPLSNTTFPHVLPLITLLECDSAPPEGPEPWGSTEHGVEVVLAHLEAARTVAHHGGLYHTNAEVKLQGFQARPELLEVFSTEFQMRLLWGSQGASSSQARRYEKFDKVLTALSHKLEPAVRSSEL
B2: Breast cancer anti-estrogen resistance protein 3 (Homo sapiens), O75815-1 (parent)
chain: MAAGKFASLPRNMPVNHQFPLASSMDLLSSRSPLAEHRPDAYQDVSIHGTLPRKKKGPPPIRSCDDFSHMGTLPHSKSPRQNSPVTQDGIQESPWQDRHGETFTFRDPHLLDPTVEYVKFSKERHIMDRTPEKLKKELEEELLLSSEDLRSHAWYHGRIPRQVSENLVQRDGDFLVRDSLSSPGNFVLTCQWKNLAQHFKINRTVLRLSEAYSRVQYQFEMESFDSIPGLVRCYVGNRRPISQQSGAIIFQPINRTVPLRCLEEHYGTSPGQAREGSLTKGRPDVAKRLSLTMGGVQAREQNLPRGNLLRNKEKSGSQPACLDHMQDRRALSLKAHQSESYLPIGCKLPPQSSGVDTSPCPNSPVFRTGSEPALSPAVVRRVSSDARAGEALRGSDSQLCPKPPPKPCKVPFLKVPSSPSAWLNSEANYCELNPAFATGCGRGAKLPSCAQGSHTELLTAKQNEAPGPRNSGVNYLILDDDDRERPWEPAAAQMEKGQWDKGEFVTPLLETVSSFRPNEFESKFLPPENKPLETAMLKRAKELFTNNDPKVIAQHVLSMDCRVARILGVSEEMRRNMGVSSGLELITLPHGHQLRLDIIERHNTMAIGIAVDILGCTGTLEDRAATLSKIIQVAVELKDSMGDLYSFSALMKALEMPQITRLEKTWTALRHQYTQTAILYEKQLKPFSKLLHEGRESTCVPPNNVSVPLLMPLVTLMERQAVTFEGTDMWEKNDQSCEIMLNHLATARFMAEAADSYRMNAERILAGFQPDEEMNEICKTEFQMRLLWGSKGAQVNQTERYEKFNQILTALSRKLEPPPVKQAEL
partner: B1 chain
B3: SH2 domain-containing protein 3C (Homo sapiens), Q8N5H7-2 (parent)
chain: B1 partner
partner: B1 chain

In one experiment the parent is B1. To be noted: with SH2D3C.
Regarding L787E;F794R, the “effect of a mutation on the interaction” value is “disrupting interaction”.

In the case of D797R, the “effect of a mutation on the interaction” value is given as “decreasing interaction”.

For the variant F794E;D797R, the “effect of a mutation on the interaction” value is given as “disrupting interaction”.

As for L787E, the “effect of a mutation on the interaction” value is given as “decreasing interaction”.

With F794R, the “effect of a mutation on the interaction” value was “decreasing interaction”.

The variants in a further experiment derive from B1. As to conditions: with SH2D3C. The source holds these as a separate data set.
For the variant L787E, the “effect of a mutation on the interaction” value is “disrupting interaction”.

For the variant F794R, the “effect of a mutation on the interaction” value is given as “disrupting interaction”.

The variants in a further experiment derive from B2. To be noted: with bcar1_human BCAR1, P56945.
With R748E, the “effect of a mutation on the interaction” value was “disrupting interaction”.

Take L744E: the “effect of a mutation on the interaction” value is “disrupting interaction”.

The next experiment covers variants of B3. As to conditions: with bcar1_human BCAR1, P56945.
In the case of L469R, the “effect of a mutation on the interaction” value is listed as “decreasing interaction”.

For R627E, the “effect of a mutation on the interaction” value is reported as “decreasing interaction”.

Regarding L623E, the “effect of a mutation on the interaction” value is recorded as “disrupting interaction”.

In a further experiment the parent is B3. As to conditions: with bcar1_human BCAR1, P56945. This is another data set of the same source.
Take L469R: the “effect of a mutation on the interaction” value is reported as “disrupting interaction”.
